Values belong to the molecule of their own block, whether it stands above or below them. Square brackets hold non-standard residues; d marks the D form. βAla = NCCC(=O)O; Sar = CNCC(=O)O
What was measured:
human ferroportin = target: T1, human ferroportin (Homo sapiens, UniProt Q9NP59); assay type: cell-based; conditions: Table 3
T1 construct: expressed in transfected cells
T1 sequence (Q9NP59 1-571): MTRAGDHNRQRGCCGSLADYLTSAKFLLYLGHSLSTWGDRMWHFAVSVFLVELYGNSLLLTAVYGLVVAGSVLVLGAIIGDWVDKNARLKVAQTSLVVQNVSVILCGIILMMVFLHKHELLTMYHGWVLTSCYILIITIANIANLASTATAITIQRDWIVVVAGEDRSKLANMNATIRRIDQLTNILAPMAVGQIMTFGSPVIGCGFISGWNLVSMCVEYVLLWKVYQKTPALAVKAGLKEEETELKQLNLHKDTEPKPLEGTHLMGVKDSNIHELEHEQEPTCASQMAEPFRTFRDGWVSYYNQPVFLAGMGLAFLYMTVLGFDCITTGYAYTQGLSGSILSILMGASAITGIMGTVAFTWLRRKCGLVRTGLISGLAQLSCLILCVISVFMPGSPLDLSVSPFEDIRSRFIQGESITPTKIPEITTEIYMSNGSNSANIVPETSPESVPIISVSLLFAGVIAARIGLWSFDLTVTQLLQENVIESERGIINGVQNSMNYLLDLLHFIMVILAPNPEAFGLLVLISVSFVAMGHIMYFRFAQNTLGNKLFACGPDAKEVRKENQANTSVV
Description: Peptide analogues were tested in vitro for induction of internalization of the human ferroportin protein. Following internalization, the […] are degraded. The assay measures a decrease in fluorescence of the receptor.
The cDNA encoding the human ferroportin (SLC40A1) was cloned from a cDNA clone from Origene (NM_014585). The DNA encoding the ferroportin was amplified by PCR using primers also encoding terminal restriction sites for subcloning, but without the termination codon. The ferroportin receptor was subcloned into a mammalian GFP expression vector containing a neomycin (G418) resistance marker in such that the reading frame of the ferroportin was fused in frame with the GFP protein. The fidelity of the DNA encoding the protein was confirmed by DNA sequencing. HEK293 cells were used for transfection of the ferroportin-GFP receptor expression plasmid. The cells were grown according to standard protocol in growth medium and transfected with the plasmids using Lipofectamine (manufacturer's protocol, Invitrogen). […] The cells were propagated and frozen in aliquots.
A retro inverse peptide is a peptide with a reversed sequence in all D amino acids. […] The EC50 of these reference compounds for ferroportin degradation was determined according to the activity assay described above.

[1] = reported by Presza et al. J Clin Invest. 2011; cited from earlier work
[2] = target: T2, human ferroportin (SLC40A1) fused to GFP (human, UniProt Q9NP59 1-571); experiment: cell-based or functional assay
T2 sequence (looked up): T1 sequence (Q9NP59 1-571)

Molecule: DTHCPIAIF [compound 473]
Ferroportin internalization assay EC50 (nM) (human ferroportin): Not Active

Molecule: Hy-DPhe-DIle-DCys-DIle-DPro-DPhe-DHis-DThr-DAsp-NH2 [RI-Mini Hepcidin]
activity in vivo [1]: highly active in vivo

B2: CMPD No. 205 (peptide)
peptide: DTHFPCIKFKPRSKGWVCK
modifications: not fully specified; IVA (isovaleric acid) on side chain of Lys 10; C-terminal amide
Potency EC50 [2]: > 0.3 µM

B5: CMPD No. 131 (peptide)
peptide: H-DTHFKCIIFGPRSKGWVCK-NH2
modifications: not fully specified (bridges); printed as Hy-DTHFKCIIFGPRSKGWVCK-NH2; cysteine pairing not given here
Potency EC50 [2]: > 10 µM

Continued, values first:

Potency EC50 [2]: > 10 µM
B1: CMPD No. 127 (peptide)
peptide: H-DTHF[Sar]CIIFGPRSKGWVCK-NH2
modifications: not fully specified (bridges); printed as Hy-DTHF-[Sarc]-CIIFGPRSKGWVCK-NH2; cysteine pairing not given here

Potency EC50 [2]: > 10 µM
B3: CMPD No. 123 (peptide)
peptide: H-DTHFGCIIFGPRSKGWVCK-NH2
modifications: not fully specified (bridges); printed as Hy-DTHFGCIIFGPRSKGWVCK-NH2; cysteine pairing not given here

Potency EC50 [2]: > 10 µM
B4: CMPD No. 129 (peptide)
peptide: H-DTHF[βAla]CIIFGPRSKGWVCK-NH2
modifications: not fully specified (bridges); printed as Hy-DTHF-[β-Ala]-CIIFGPRSKGWVCK-NH2; cysteine pairing not given here

Potency EC50 [2]: > 10 µM
B6: CMPD No. 125 (peptide)
peptide: H-DTHFRCIIFGPRSKGWVCK-NH2
modifications: not fully specified (bridges); printed as Hy-DTHFRCIIFGPRSKGWVCK-NH2; cysteine pairing not given here

Source: patent US20200017566A1 (priority 2014, published 2020)
